Assay results as given in a protein production outcome set (Wang et al. 2014).

Test: label from the status in PepcDB records

Sequence | protein production
MMFNYIYTTFLTILYTVVMSLSLSLYLKEREKNYLLVSLYFLLLILNGLIVTMSETFQIFANDYNQQFMVNPIIETIYYLATFGIALKLVTELFEEKITTYQYGIYIVFALWLIVVPFMANSALKVWLYYFPSQLLTVYLGIYLLIHNRKMIPKSSLGKYVKLIGSLAIFFGLAIVVEDTFIIYFRDIYHTNMLKIHNRNVSEDIFHISLCLIAIKYFLTNYQKSNEEVAVIDIRNEKKETNDSVSNFEEDEYYFERFMDKYGITQREGEILELLLQRKHNQEIANQLYLSLGTVKTHTHNIFIKLQVEKRSEVCEVWEAFEKSELTQ | failed
MSLEWQDLAQLPVSIFKDYVTDAQDAEKPFIWTEVFLREINRSNQEIILHIWPMTKTVILGMLDRELPHLELAKKEIISRGYEPVVRNFGGLAVVADEGILNFSLVIPDVFERKLSISDGYLIMVDFIRSIFSDFYQPIEHFEVETSYCPGKFDLSINGKKFAGLAQRRIKNGIAVSIYLSVCGDQKGRSQMISDFYKIGLGDTGSPIAYPNVDPEIMANLSDLLDCPMTVEDVIDRMLISLKQVGFNDRLLMIRPDLVAEFDRFQAKSMANKGMVSRDEEGHHHHHH | not failed
ASKAFYSAGDKLFQPGDDAVASMQTYSVAQFLQPFTLNPAKASSDYLGKWVKVRGVIVDIRRKSGIAGSYYFIVTMRDEQNKTDKRLTFNFGSHNSADVEALSNGSVATIVGQVHQVQDSTIPTLQNPKVVK | not failed
MPTTRKENLQFGMMMCLGMVIVMTFYNLLMNETGGPIYIKEIALELLIGFIIALLIEISIVGPCAKKIVFMLPFDKSKKINIIVAMATTMVIGMVFFMSFFGMAMMHLHGGLQGASFVSIYFSIFIKNFIMAYPLQLIIMGPLVRFLFAKFVMKKKSFNVA | failed
MKKKFIITFILSLALFAGIFWVANKVLDIMELTSKVEFVGSDLGEGNNIEQRVENELLFLVLGLDSDDFSGATTEQNRTDTMILCKVNFDTGKIDILSIPRDSRVMVNGKLDKINHAHHFGGLKLAMKTTRDFLNLDIDYYVRVNFFSVKDIVDALGGVEVDVPVQVDVAEDNVHLKPGKQVLNGKQALQFARFRAGYKEGDVGRVKAQQILIKALVKELTKAKNIAKIPEILEVVKKTVNTNIPFSTIAKLSLKVNNLSEDKINTQIVPGESAYINNTSYFIPDRSKLNAIVKEMFSDYLLNKSGSSQVDTDKNKNNTNTKNNNNKNNNTNNRNNSNNNKNNNNKNNKNNKNNNR | failed
MNPFTYSKPTDITAAVNLSGPATRFIAGGTNLLDLMKENVATPEHLIDITGLPLREVSETASGGLMIGALVSNADLAYHPLIEARYPLLSKAVLAGASPQLRNMASTGGNLLQRTRCYYFYDTGVPCNKREPGSGCPAREGLNRIHAILGASDECVATHPSDMCVALAALEAVVHVEGRAGRRTIEFADFHRLPGDAPQRDNQLADDELIIAVELPAQGFASHNAYLKIRDRASYAFALISVAAAIDLDGDVVRDVRLALGGVAHKPWRDKAVEALLIGKPVTREHFAAAADAMLEDAKPLEHNGFKVRLARRAIIRALSDAATGGSAL | not failed
MVFGPGLCIAHRGTIVVNKGARVGENCRIHACTNIGSGRDNIFLAPKIGNGVYIGPGAKIFGSVEIADNIAIGANSVVNRSFYERGISIAGVPAKKISNKGSDGMVIAATKTVSVPVSQETILEHHHHHH | failed
MTDEVSVLFVDFLLEWLEMMRTRVRETTYASYNSGIRQSIIPYFMDKKLTLTDIEENPKYLQDFYQHELSKGLSPNSVLRRHANIRKALQHAFHLGLIKSNPADRIERPKKQDYTALEHHHHHH | not failed
MEGEAQKKFTTGDKAYVKKDSMMYEIVVGCNRSCPCRDSQCIAQIQQVAEPTVANGTARYFVHYVSWNESFDEWVEELDLYPFNAESQQLMNDLRQQALTEKDTENSVPEQENQLKRKRPSKETEKREEPLDAYSLFNIPGSLKRQLMDEWETVTREKMTLTLPREYTVRRILEIWATTKSKQSDSNKDDSTVQEFVNGIFELFNISLGKMLLYRYERPQHNQIFHENESPPEPIDVYGAEHLLRLFVKLPGLVRHLQVPEEAVLNIAQKSYEMLRFLQKNSRKFFSPQYEPLKSQDDSVQGENEDDMDEE | not failed
MTEPCYVMVDQRFDEFVDTARAPEQIVHGFAWTEGPVWLDGAPFFNDIANKRMMRWTKQACAEVALDNSEFANGNTLDGAGQVVSGEHAGRRVIRRPDPTDPSAVEVIAERSEGKRLNSPNEVVVRSDGSVWFTNPPYGINSDIEGYPAESEIGGCFVFCPDPDGTLHAVATEFDKPNELAFSPDECRLFVADSGAIRGAIFPGIDDDLPHHVRVFDVDGVTLSNGRVFAVVAPGAPDGFRVDHEGYVWTSALDGIHCLSPEGALIGKIWLPRQTSIICFGGPPGQTMFITSSDKVYRVESTRRDAAHALRDRERNAE | failed
HLGEVQSEVVRFAVRFPSDKEQSSLLIDADAPVYDFVRLRLLNGEPVSLDLTVMPVGLVPGLTKSHLEGSVFRYVQETLGLKLMGSYRVVRAMKPGELDKQHLHCEPTDPVLEVEQVIYLEDGTPLEYAHCHYRYDHGG | not failed
MDFLPIFVIIASVMTAVSVYLIYLVKKGINGIGFLLVLYLSGSMLTMFISLSIALSNTALTTEILALTVNTAYMIVGLVSILLLGASRRKIESRKWYTVLLFSLLMTISEAVMGESFYSILTKSIGNPLIGTENYWFYAVMLAEMTFTLVYSFNSLTRQIRNYLLVTLPIMVVSPVILPTFSIWLSSLLMIVATIIIYDTLYRDRLKKTQETFTSLELMLIFTLMMAGIFTYYVTSSWYLYDISMILGMTWFIYRAIQGPSSIKGNYLRDSRWTFAFVLMTFVMEWFMGAVLDFASSYFSPGVEGFISSLPLGFVNPFSYFGAGALFDFLSIFGSVTGSVWFLVMMGLEMGTLAIFRIKEVRLRENRIRLALMVSAFAIYAVYIPSFSPLASKIPYIPYMWSMGLGTLGPVSTDYLLSGIVGTYVLSAVLSFLFGSRQICSVTCTAPTMYQGTFYNSLKVYNRTSSFARKTLSSKLRPWYKLIAIAVWSSLLAFAVISYFDQKGILNITIFGNDPTMFLYSFYFNFLWYVVFISIPFSGNYACVTQGWCSWGTFNQFFGGLGLFRLKVKDPELCVKCETKACSKACPVGNTDLPGNFIKKGEFKSSRCIGVGDCAEACPYDNIMFYDVRSWLKEKIKGDKM | failed
TSSLHPTRGKLLKRFAQIGPYIREQQCQESQFFFDCLAVCVNKKVTPEKREFWGWWMELERNGEQLIYYYQVGLFDKNGDWVNQVISKKDVIESIHETLIRFHDFLQAAVSELEMTLVPDEKMSNFPLPL | not failed
MLAALEVAVPALYAVAIVVLTAYGGNLLWLALVHAASERLRDGPVPDPDDLPVPDDDWPVVTVQLPLYNEAEVAHRLIDACVQLDYPRSRLDIQVLDDSTDATTERVARRVAHWQAEGVNITHVRRDDRTGYKAGALANGLQRARGDLIAIFDADFVPRPSFLRRLVPRFFDAPDLGMVQARWGHLNRDDSLLTKVQAFGLDAHFAIEQRVRELAGCFLNFNGTAGVWRRACIEDAGGWAHDTLTEDLDLSYRAQLQGWRLTYVPAAEAPAELPPDMNALRAQQFRWAKGGAETALKLTGRLWRSAQPWRVKLEGTFHLTAHFAFPFILLAALTHAPLLLLKGIGHGPGEVYFAVMGFGLFGFAGFFLAQLFAQRALHPDWRRRLRLFVPFMAGTMGLSLSNTSAVWQALRGTDTAFIRTPKVGSAGGDGWWESRYAIREVPRIVWGELALAVYSTVGLGVVIGLGEWAAVPFQALFALGFALVTASSLRQALTAQQGPTASAPASSPAA | failed
MSLQFNPIGLFLVALILLGVLGNNNSITISATLLLLMQQTALNKYIPMLEKYGLTIGIIILTIGVLSPIVSGKINLPNLSEILSWKMALAISIGIFVAWLGGRGINLMATQPLIITGLLIGTIIGIAFFGGIPVGPLIAAGIMSLLVGKL | failed
MTFRESVPFIVAIAATIPGILLRVVHPDISPLLMASLTGLAILGASFMLMWACEVAQMDIPQTLALAVVALIAVLPEYAVDMYFTWMAGQHPESNYAHYAIANMTGANRLLIGIGWSAIAILYALRFRKAVQLEEERRSELLFLALATAYALVIPLKGTLEWYDGVILVSLYVWYIRIASKRPCTDCEVEGPAEALAHLPRNTRRLTTLGLFLFAAGVILCDAELFSESLVASGKVLGINEFLLVQWLAPIASEAPEFIVAIMFATRGQASLALGSLISSKLNQWTLLVGMIPGVFAVSSGSINPPMPMDDHQMHELLLTAAQSLFAVVLLARMRLGLRGALVLLALFIGQFAAPLYEPYVENLLGIPHMPDGLHIVYSGLYIALALGMMLYRPGRLLQLREGLKV | failed
PEQHRLRYQSLKQQLDDYYQEVTVQNYLDLTTRSHAFDQWLNNNIQLDWVKATVVKDAPDKIRAKANKEQHLNFQLIKHLEKPEDNVDLISAYFVPEKQGAKHLSDMAQDGIKVRVLTNSFKANDVPVVHAFYAKYRQELLENGVQLYEFLPTLEKEELDKYTDELVKKAKVSIKGLSRSSLHAKMMALDQKQVFIGSFNFDPRSAYLNTEIGVILNSPPLAMAVHQTMDQQLTHYAYKLVLDANHKINWYRQTS | failed
MVSPKKLTPAMEQVKTFKEKYPDCILFMRMGDFYETFFEDAEICARELDIVQTSRSKDPEGNPIPLAGIPYHAVDLYLPRMIRKGYKVAVCEQVEDPKLAKGVVKRDVVRVVTPGTAIDADVIPGPTARYLMALCSDAKKTVMGLAFLDISTGEFFVREIPFEPGFSALATEIEQYNPLEILVPQGISADLISFLASTCKVLTPGRSGLFVDGTAELTAAFCVSSLDGFDVSSAECINAAAAALRYAKETQKTSLPHIRGFSRKYANDAMILDAITLRNLEILNPLRGDRNDTTLFGFLNRTKTPMGSRVLRSTITRPLTSPEKINHRLDAVGFFTRRPVLLSGTRTILSRFTDIERIAGRIAYGNASPRDLLALASSLAAVPELTAELCGAEGLLKDELEQIPSFDGVADLILSAIVDEPPLVYKNGGVIREGYSSDLDQIRNIVTNGRDWIAELQQTERERTGIRSLKIAYNNVFGYYIEITKANLHLVPDTYERKQTTANGERFTIPALREREAVMAQADDRVLALEISLFESLLTHLSEFVPALQQASRSIGTIDMIAAFADLSLSGNYVRPELVPGTELLIRDGRHPIVENTVPGGYVPNDTEMSSIGQQILILTGANMAGKSTYMRSVALICIMAQTGCFVPASFARIGIVDRVFTRVGASDDLAGGQSTFMVEMLELANILNNATDQSLILLDEIGRGTSTVDGYAIARAVLEYLHGKGGAGPRTLFATHFHQLIGMESELRRVRNYHFAVKEDQHDITFLRKLIPGATDRSYGIHVAKIAGVPKKVLVRASDLLREALTQDASSGGTKYYTQMLLTDAEPAPSAVEERIRDADPNMMTPMQALMFINELKALLEKK | failed
MAKITVGTENQAPIEIYYEDHGTGKPVVLIHGWPLSGRSWEYQVPALVEAGYRVITYDRRGFGKSSQPWEGYEYDTFTSDLHQLLEQLELQNVTLVGFSMGGGEVARYISTYGTDRIEKVVFAGAVPPYLYKSEDHPEGALDDATIETFKSGVINDRLAFLDEFTKGFFAAGDRTDLVSESFRLYNWDIAAGASPKGTLDCITAFSKTDFRKDLEKFNIPTLIIHGDSDATVPFEYSGKLTHEAIPNSKVALIKGGPHGLNATHAKEFNEALLLFLKD | not failed
MCTGTKSFFLLQRFKLKEDVTMEQKPVLDVNEVPKPGKWLFLSIQHLFAMFGSTVLVPFLTGLNPSVALISSGLGTLAFLLITKGQVPAYLGSSFAFIAPIITAKTAGGPGAAMLGGLLAGLVYILISLGIKKSGSEWIMKLLPPIVVGPVVMVIGLALAHTAVNMAMNGADGKYSFTHFSVALVTLAITIICSIFGRGFFSIIPVLLGIIGGYIFAYFQGLVDLKPVAEAKWFVVPDFTVPFVTYTPEFSWKIVLLMVPVALVTISEHIGHQIVLGNVIKRDLIEKPGLHRSIFGDGVATLIASLIGGPPNTTYGENIGVLAITRAYSVYLFIGSAVFAIMFGFIGKISALIHSIPTPVMGGVSILLFGVIASSGLRMMVDDKTDLSDKRNLMIASVILVIGIGGAVLHVGESFQVEGMALAAIVGVLLNLLLPETKQIKQSKQIAS | failed
